Laboratory results published in patent US20180230213A1 (AVEO PHARMACEUTICALS, published 2018).

Columns and labels:
[1] = molecular target: T1, human Notch3 on the cell surface (human, UniProt Q9UM47 40-2321); experiment: FACS on CHO N3 cells (human Notch3), 4 C, one site binding fit
T1 construct: whole, on cells; the cells carry the full length protein; also called cell surface human Notch3; hNotch3
Experimental: Binding to cell surface human Notch3 by the antibody 4F11 was measured at 4° C., using Fluorescence Activated Cell Sorting (FACS). CHO N3 (Flp-In-CHO cells (Invitrogen) stably transfected with human Notch3), HCC2429 cells, and RL-952 cells expressing human Notch3 were washed once with PBS containing calcium chloride and magnesium chloride (Invitrogen) and harvested using cell dissociation buffer (Invitrogen). Cells were washed a second time with PBS and resuspended in FACS buffer (PBS with 0.5% BSA (Sigma-Aldrich)) for a final cell concentration of 250,000 cells per well into a 96-well v-bottom plate. Purified antibodies were diluted in FACS buffer over a concentration range of 100 nM to 0.1 nM. Cells were then incubated at 4° C. with […] of antibody for one hour, washed with FACS buffer twice, and resuspended in […] of goat-anti mouse PE-conjugated antibody (Jackson Immuno Research). Cells were incubated at 4° C. for 30 minutes in the dark, washed once with FACS buffer, and then analyzed using a Beckman Coulter Cytomics FC 500 instrument. The geometric mean of the florescent intensity was then calculated for each antibody concentration. These values were then entered into Prism software (GraphPad, La Jolla, Calif.) and used to generate a binding curve by plotting geometric mean versus antibody concentration. […]

[2] = molecular target: T2, human Notch1 expressed on the surface of CHO cells (human, UniProt P46531 19-2555); experiment: electrochemiluminescence (Meso Scale Discovery) on transfected CHO cells
T2 construct: whole, on cells
T2 sequence (P46531 19-2555): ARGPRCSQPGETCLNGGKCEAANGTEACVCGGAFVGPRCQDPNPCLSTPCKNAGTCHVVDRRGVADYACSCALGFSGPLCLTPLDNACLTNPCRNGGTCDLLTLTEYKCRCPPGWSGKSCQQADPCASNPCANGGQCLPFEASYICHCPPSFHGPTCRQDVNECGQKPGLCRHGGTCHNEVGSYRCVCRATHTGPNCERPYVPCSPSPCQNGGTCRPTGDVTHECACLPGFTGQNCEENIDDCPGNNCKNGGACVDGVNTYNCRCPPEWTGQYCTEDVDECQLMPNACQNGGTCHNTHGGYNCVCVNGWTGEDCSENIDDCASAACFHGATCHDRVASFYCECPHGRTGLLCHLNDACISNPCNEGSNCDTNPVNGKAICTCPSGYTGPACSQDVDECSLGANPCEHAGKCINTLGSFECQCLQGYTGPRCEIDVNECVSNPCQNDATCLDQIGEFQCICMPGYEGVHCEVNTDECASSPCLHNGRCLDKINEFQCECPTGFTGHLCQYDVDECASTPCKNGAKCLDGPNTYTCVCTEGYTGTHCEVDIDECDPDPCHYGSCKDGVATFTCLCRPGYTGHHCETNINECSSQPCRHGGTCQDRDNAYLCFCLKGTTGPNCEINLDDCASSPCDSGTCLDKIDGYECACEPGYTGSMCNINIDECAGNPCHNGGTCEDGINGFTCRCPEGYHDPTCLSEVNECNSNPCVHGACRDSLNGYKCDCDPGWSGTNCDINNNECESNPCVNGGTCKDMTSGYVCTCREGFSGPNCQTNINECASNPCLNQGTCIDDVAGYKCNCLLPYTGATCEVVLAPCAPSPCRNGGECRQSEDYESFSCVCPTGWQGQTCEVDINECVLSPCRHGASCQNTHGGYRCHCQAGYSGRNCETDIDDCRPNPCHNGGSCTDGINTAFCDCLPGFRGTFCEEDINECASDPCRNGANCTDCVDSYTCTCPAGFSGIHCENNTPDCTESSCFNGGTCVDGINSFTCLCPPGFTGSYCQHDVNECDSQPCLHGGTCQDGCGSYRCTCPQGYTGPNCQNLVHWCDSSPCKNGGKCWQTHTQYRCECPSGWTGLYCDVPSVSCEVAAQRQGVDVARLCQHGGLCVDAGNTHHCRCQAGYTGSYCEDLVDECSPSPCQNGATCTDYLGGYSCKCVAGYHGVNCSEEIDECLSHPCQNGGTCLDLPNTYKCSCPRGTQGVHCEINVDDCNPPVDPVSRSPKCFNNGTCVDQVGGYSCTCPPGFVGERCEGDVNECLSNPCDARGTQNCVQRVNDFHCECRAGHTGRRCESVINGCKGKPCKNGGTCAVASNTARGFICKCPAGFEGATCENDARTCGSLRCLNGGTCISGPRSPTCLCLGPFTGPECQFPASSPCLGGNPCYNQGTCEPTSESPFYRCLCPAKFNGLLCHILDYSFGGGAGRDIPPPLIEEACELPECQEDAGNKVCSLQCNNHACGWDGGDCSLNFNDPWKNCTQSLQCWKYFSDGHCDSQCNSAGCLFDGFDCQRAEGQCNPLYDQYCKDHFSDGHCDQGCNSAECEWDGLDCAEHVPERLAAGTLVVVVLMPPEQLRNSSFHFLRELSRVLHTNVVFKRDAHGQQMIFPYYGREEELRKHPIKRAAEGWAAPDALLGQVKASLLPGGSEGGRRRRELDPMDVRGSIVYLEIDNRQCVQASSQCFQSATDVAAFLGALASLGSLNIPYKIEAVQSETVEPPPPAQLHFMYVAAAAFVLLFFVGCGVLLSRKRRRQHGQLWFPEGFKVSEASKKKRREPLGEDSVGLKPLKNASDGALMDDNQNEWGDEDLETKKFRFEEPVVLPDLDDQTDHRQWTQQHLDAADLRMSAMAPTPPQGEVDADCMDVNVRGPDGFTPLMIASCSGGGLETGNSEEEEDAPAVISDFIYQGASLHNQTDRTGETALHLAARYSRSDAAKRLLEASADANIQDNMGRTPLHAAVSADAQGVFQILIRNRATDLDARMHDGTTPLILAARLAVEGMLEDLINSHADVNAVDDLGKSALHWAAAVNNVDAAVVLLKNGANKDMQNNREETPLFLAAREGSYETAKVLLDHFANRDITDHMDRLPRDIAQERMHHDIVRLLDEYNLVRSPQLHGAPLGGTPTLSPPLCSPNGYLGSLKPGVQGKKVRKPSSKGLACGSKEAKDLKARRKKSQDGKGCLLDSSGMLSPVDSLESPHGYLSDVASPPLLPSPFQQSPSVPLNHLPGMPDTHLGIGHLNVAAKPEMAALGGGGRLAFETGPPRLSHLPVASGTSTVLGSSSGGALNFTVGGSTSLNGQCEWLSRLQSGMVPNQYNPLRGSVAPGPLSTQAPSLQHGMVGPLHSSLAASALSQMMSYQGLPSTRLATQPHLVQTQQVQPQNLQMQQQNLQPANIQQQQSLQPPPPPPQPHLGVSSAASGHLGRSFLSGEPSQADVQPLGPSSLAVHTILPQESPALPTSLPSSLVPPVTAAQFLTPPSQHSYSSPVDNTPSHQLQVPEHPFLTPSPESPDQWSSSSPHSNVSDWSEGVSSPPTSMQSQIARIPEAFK
Experimental: (§1) To determine specificity of binding to cell surface Notch proteins, antibody 4F11 was tested for binding to human Notch1, human Notch2, human Notch3 and human Notch4 expressed on the surface of CHO cells using electrochemiluminescence (Meso Scale Discovery). A CHO line lacking any human Notch protein was also produced for use as a negative control. Cells were grown under standard conditions (37° C., F12+10% FBS). For binding studies, cells were washed in PBS containing calcium and magnesium, and removed from the plate by treatment with Cell Dissociation Buffer (Life Technologies) for ten minutes at 37° C.
(§2) Cells were seeded at a density of 30,000 cells per well, in hybridoma media, instandard 96-well binding plates (Meso Scale Discovery, Cat. No. L15XA-6). Cells were incubated for one hour at 37° C. Antibodies or control IgG were added at 5 μg/ml, in 50 μl hybridoma media, and incubated for one hour at 37° C. The plates were washed twice with PBS containing 3% BSA. Binding of the antibodies to cell surface was detected using 2 μg/ml of MSD anti-mouse IgG secondary antibody (Meso Scale Discovery, Cat. No. R32AC-1) for one hour at 4° C. Plates were washed twice with PBS containing 3% BSA, and 150 μl of read buffer (Meso Scale Discovery Cat. No. R92TC-1) was added. The plates were analyzed on a Sector Imager 2400 instrument (Meso Scale Discovery).

[3] = molecular target: T3, human Notch2 expressed on the surface of CHO cells (human, UniProt Q04721 26-2471); experiment: as above
T3 construct: whole, on cells
Experimental: as §1, §2

[4] = molecular target: T4, human Notch4 expressed on the surface of CHO cells (human, UniProt Q99466 24-2003); experiment: as above
T4 construct: whole, on cells
T4 sequence (Q99466 24-2003): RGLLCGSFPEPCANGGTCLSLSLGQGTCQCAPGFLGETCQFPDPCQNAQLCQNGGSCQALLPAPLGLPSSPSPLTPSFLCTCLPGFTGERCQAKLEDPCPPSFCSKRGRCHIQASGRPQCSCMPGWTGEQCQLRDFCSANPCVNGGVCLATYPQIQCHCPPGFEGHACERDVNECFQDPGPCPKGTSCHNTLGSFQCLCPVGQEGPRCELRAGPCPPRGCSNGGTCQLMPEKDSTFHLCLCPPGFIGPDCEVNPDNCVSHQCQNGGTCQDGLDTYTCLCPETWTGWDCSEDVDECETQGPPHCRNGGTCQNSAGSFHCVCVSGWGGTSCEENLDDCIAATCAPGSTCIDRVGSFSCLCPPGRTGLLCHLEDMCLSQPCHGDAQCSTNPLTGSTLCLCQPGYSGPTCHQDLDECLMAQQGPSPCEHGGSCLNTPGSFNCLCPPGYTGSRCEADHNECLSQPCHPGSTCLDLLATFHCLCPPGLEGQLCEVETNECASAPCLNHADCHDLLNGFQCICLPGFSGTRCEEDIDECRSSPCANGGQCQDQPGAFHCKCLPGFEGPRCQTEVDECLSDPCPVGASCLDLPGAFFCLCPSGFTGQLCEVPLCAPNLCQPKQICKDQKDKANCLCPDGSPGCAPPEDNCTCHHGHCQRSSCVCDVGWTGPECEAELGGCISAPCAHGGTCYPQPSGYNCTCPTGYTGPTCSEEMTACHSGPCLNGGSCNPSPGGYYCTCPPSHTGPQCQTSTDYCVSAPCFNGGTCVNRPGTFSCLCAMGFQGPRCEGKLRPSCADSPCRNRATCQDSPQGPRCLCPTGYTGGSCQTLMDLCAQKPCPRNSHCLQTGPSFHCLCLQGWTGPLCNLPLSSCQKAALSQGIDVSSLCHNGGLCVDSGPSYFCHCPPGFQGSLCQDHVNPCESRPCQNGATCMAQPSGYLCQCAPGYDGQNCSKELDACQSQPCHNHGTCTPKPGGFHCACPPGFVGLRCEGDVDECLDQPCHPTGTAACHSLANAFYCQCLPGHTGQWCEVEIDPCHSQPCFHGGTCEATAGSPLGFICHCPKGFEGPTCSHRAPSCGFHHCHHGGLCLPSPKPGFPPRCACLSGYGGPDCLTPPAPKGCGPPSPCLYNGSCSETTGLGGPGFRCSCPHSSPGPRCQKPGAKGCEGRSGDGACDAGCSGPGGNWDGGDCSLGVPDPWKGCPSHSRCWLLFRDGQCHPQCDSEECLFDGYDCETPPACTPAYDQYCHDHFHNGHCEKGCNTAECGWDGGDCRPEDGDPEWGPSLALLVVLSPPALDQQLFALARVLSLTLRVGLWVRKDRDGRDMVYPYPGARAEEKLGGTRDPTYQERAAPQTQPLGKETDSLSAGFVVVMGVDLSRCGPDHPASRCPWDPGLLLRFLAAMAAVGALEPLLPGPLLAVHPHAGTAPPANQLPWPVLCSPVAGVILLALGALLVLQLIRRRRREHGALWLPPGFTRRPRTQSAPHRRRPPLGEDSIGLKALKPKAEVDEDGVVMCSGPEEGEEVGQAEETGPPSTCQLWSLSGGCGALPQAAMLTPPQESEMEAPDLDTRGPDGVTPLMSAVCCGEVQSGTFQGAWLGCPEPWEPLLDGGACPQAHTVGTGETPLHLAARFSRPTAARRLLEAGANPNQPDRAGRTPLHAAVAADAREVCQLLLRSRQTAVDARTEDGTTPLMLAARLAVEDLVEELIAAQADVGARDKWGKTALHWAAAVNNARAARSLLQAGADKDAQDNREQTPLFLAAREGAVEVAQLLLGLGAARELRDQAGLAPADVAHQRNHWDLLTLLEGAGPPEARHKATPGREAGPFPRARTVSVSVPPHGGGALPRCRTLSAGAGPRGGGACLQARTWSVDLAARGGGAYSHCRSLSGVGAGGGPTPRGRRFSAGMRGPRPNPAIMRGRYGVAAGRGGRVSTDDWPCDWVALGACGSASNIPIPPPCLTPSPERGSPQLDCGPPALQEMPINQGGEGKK
Experimental: as §1, §2

[5] = molecular target: T5, recombinant human Notch3 extracellular domain (containing EGF like domains 1-11) Fc fusion protein (human, UniProt Q9UM47 40-467); experiment: SPR Biacore T100, 4F11 captured by anti-mouse IgG, rhNotch3-Fc analyte, 25 C
T5 construct: domain: EGF like domains 1-11; also called rhNotch3-Fc; rhNotch3
T5 sequence (looked up): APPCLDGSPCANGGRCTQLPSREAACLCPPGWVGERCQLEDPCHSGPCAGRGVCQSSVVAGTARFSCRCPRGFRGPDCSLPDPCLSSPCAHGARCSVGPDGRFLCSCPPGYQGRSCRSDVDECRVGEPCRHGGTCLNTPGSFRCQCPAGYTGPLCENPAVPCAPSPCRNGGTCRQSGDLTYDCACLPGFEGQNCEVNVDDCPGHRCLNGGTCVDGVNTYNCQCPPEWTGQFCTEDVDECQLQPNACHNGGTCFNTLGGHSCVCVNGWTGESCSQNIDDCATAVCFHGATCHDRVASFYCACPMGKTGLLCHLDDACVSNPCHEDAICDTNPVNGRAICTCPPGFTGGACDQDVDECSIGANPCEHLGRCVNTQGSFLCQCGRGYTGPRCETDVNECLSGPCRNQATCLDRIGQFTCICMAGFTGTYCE
Experimental: The binding affinity and kinetics of binding of antibody 4F11 to recombinant human Notch3 extracellular domain (containing EGF like domains 1-11) Fc fusion protein (rhNotch3-Fc (R&D Systems, Inc., Minneapolis, Minn.)) were measured by surface plasmon resonance using a Biacore® T100 instrument (GE Healthcare, Piscataway, N.J.).
Rabbit anti-mouse IgGs (GE Healthcare) were immobilized on carboxymethylated dextran CM4 sensor chips (GE Healthcare) by amine coupling, according to a standard protocol. Analyses were performed at 25° C. and 37° C. using PBS containing 0.05% surfactant P20 as running buffer. The antibody was captured in individual flow cells at a flow rate of 10 μl/minute. Injection time was varied for each antibody to yield an Rmax between 30 and 60 resonance units (RU). Buffer or rhNotch3-Fc diluted in running buffer was injected sequentially over a reference surface (no antibody captured) and the active surface (antibody to be tested) for 240 seconds at 60 μl/minute. The dissociation phase was monitored for up to 1500 seconds. The surface was then regenerated with two 60-second injections of 10 mM Glycine-HCl, pH 2.25, at a flow rate of 30 μl/minute. The rhNotch3-Fc concentration range tested was 100 nM to 3.125 nM (2 fold dilution).
Kinetic parameters were determined using the kinetic function of the BIAevaluation software (GE Healthcare) with double reference subtraction. Kinetic parameters for the antibody, kₐ (association rate constant), kd (dissociation rate constant) and KD (equilibrium dissociation constant) were determined.

B1: antibody 4F11 (murine monoclonal anti-human Notch3) (antibody, mouse IgG1, kappa, V domains shown)
VH: EVQLVESGGGLVKPGGSLKLSCAASGFAFSSYDMSWVRQTPEKRLEWVAYISRGGGSTYYPDTVKGRFTISRDNAKNTLYLQMSSLKSEDTAMYYCGRHATTAYWYFDVWGAGTTVTVSS
VL: DVVMTQTPLSLPVSLGDQASISCRSSQSLVHTNGNTYLHWYLQKPGQSPKLLIYKVSNRFSGVPDRFSGSGSGTDFTLKISRVEAEDLGVYFCSQSTHVPWTFGGGTKLEIKR
notes: Mouse IgG1 kappa purified from hybridoma; also called mu4F11; murine 4F11
Kd [1]: 0.36 nM
binding result [2]: no binding (tested: 5 µg/ml)
binding result [3]: no binding (tested: 5 µg/ml)
binding result [4]: no binding (tested: 5 µg/ml)
Kd [5]: 0.823 nM
koff [5]: 4.8e-05 s⁻¹
kon [5]: 70000 M⁻¹ s⁻¹
